Molecular target: the molecule itself
Assay: crystal structure

B1: 14-3-3θ protein (natural protein)
chain: EKTELIQKAKLAEQAERYDDMATCMKAVTEQGAELSNEERNLLSVAYKNVVGGRRSAWRVISSIEQKTDTSDKKLQLIKDYREKVESELRSICTTVLELLDKYLIANATNPESKVFYLKMKGDYFRYLAEVACGDDRKQTIDNSQGAYQEAFDISKKEMQPTHPIRLGLALNFSVFYYEILNNPELACTLAKTAFDEAIAELDTLNEDSYKDSTLIMQLLRDNLTLWTSDSAG
stoichiometry N: 2

Reference: PMC7578760 (iScience, 2020)
